From patent US20230348892A1

Biological target: intC-ZF1-NLS-HA
Experiment: cell-based or functional assay

Question: For 3xFLAG-NLS-VP64-intN, which rec: Reconstitution of split TFs (fitted based on split inteins), model rate constant fitted to reporter data is on record?
Answer: 0.34 U^-1 h^-1
